In patent US20240181007A1, “COMPOSITIONS AND METHODS FOR TREATING PULMONARY HYPERTENSION” (Acceleron Pharma Inc., priority 2021, published 2024):

Columns and labels:
[1] = Muscle-building activity in vivo; settings: material from CHO, HEK293 and COS cells; variability in potency was observed
[2] = molecular target: T1, activin A (UniProt P08476 311-426); assay: SPR (Biacore), 37 C
T1 construct: Soluble ligand injected in SPR or added in the reporter assay
T1 sequence (looked up): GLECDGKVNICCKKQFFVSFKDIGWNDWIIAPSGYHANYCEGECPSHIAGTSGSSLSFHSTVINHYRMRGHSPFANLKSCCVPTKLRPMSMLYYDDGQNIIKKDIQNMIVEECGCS
Protocol: (§1) A Biacore™-based binding assay was used to compare the ligand binding kinetics of an ActRIIB-Fc:ActRIIB(L79E)-Fc heterodimer with those of unmodified ActRIIB-Fc homodimer. Fusion proteins were captured onto the system using an anti-Fc antibody. Ligands were then injected and allowed to flow over the captured receptor protein at 37° C. Results are summarized in the table below, in which ligand off-rates (kd) most indicative of effective ligand traps are denoted in bold.

[3] = molecular target: T2, BMP10 (UniProt O95393 317-424); assay: SPR (Biacore), 37 C
T2 sequence (looked up): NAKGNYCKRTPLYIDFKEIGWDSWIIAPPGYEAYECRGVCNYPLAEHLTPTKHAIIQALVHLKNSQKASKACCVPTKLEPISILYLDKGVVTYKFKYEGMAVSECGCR
Protocol: as §1

[4] = molecular target: T1, activin A; assay: SPR (Biacore), fusion protein captured by anti-Fc antibody, ligand injected, 37 C
Protocol: as §1

[5] = molecular target: T3, activin B (UniProt P09529 293-407); assay: as above
T3 sequence (looked up): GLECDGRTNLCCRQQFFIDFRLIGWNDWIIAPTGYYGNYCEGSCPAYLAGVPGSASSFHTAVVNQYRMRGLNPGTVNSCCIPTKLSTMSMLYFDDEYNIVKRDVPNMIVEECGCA
Protocol: as §1

[6] = molecular target: T4, GDF3 (UniProt Q9NR23 251-364); assay: as above
T4 sequence (looked up): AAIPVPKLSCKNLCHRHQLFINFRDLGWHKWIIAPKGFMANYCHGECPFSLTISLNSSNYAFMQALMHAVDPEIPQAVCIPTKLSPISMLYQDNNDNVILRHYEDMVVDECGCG
Protocol: as §1

[7] = molecular target: T5, GDF8 (UniProt O14793 267-375); assay: as above
T5 construct: also called Growth and differentiation factor-8; myostatin
T5 sequence (looked up): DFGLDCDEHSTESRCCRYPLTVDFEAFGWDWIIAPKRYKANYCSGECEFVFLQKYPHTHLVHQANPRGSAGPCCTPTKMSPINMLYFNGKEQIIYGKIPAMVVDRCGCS
Protocol: as §1

[8] = molecular target: T6, GDF11 (UniProt O95390 299-407); assay: as above
T6 construct: also called Growth and differentiation factor-11; BMP11
T6 sequence (looked up): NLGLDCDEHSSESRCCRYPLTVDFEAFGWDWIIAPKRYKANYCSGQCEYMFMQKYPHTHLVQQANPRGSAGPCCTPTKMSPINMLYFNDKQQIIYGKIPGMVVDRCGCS
Protocol: as §1

[9] = molecular target: T7, BMP6 (UniProt P22004 382-513, limits assumed); assay: as above
T7 sequence (looked up): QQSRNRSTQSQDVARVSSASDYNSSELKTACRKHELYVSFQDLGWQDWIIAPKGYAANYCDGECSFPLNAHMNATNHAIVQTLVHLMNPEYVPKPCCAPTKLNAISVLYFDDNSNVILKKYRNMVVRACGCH
Protocol: as §1

[10] = molecular target: T8, BMP9 (UniProt Q9UK05 320-429); assay: as above
T8 sequence (looked up): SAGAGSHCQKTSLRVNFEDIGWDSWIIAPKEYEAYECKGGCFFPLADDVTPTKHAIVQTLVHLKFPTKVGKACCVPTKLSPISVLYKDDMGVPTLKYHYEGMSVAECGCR
Protocol: as §1

[11] = molecular target: T2, BMP10; assay: as above
Protocol: as §1

[12] = molecular target: T9, Activin A (Homo sapiens, UniProt P08476); assay: Biacore-based binding assay (surface plasmon resonance), activin A
T9 sequence (P08476 311-426): T1 sequence (looked up)
Protocol: (§2) To determine ligand binding profiles of variant ActRIIB-Fc homodimers, a Biacore™-based binding assay was used to compare ligand binding kinetics of certain variant ActRIIB-Fc polypeptides. ActRIIB-Fc polypeptides to be tested were independently captured onto the system using an anti-Fc antibody. Ligands were then injected and allowed to flow over the captured receptor protein. ActRIIB-G1Fc was used as the control polypeptide.
(§3) To determine ligand binding profiles of variant ActRIIB-Fc homodimers, a Biacore™-based binding assay was used to compare ligand binding kinetics of certain variant ActRIIB-Fc polypeptides. ActRIIB-Fc polypeptides to be tested were independently captured onto the system using an anti-Fc antibody. Ligands were then injected and allowed to flow over the captured receptor protein.
as §1

[13] = molecular target: T10, Activin B (Homo sapiens, UniProt P09529); assay: Biacore-based binding assay (surface plasmon resonance), activin B
T10 sequence (P09529 293-407): T3 sequence (looked up)
Protocol: as §2, §1

[14] = molecular target: T11, GDF3 (Homo sapiens, UniProt Q9NR23); assay: Biacore-based binding assay (surface plasmon resonance), GDF3; settings: 37° C., capture by anti-Fc antibody
T11 sequence (Q9NR23 251-364): T4 sequence (looked up)
Protocol: as §1

[15] = molecular target: T12, GDF8 (Homo sapiens, UniProt O14793); assay: Biacore-based binding assay (surface plasmon resonance), GDF8
T12 sequence (O14793 267-375): T5 sequence (looked up)
Protocol: as §2, §1

[16] = molecular target: T13, GDF11 (Homo sapiens, UniProt O95390); assay: Biacore-based binding assay (surface plasmon resonance), GDF11
T13 sequence (O95390 299-407): T6 sequence (looked up)
Protocol: as §2, §3, §1

[17] = molecular target: T14, BMP6 (Homo sapiens, UniProt P22004); assay: Biacore-based binding assay (surface plasmon resonance), BMP6
T14 sequence (P22004 375-513): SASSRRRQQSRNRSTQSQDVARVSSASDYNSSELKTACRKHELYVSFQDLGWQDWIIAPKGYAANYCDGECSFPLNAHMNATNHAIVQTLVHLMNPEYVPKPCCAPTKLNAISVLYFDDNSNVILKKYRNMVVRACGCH
Protocol: as §1

[18] = molecular target: T15, BMP9 (Homo sapiens, UniProt Q9UK05); assay: Biacore-based binding assay (surface plasmon resonance), BMP9
T15 sequence (Q9UK05 320-429): T8 sequence (looked up)
Outline: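 Fc-fused ActRIIB variants (homodimers, or an ActRIIB-Fc:ActRIIB(L79E)-Fc heterodimer) were captured via anti-Fc antibody, and ligands were injected over the captured receptor to measure binding kinetics by SPR. ActRIIB-G1Fc or unmodified ActRIIB-Fc homodimer served as comparator. Heterodimer runs were at 37° C, with off-rates (kd) reported.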

[19] = molecular target: T16, BMP10 (Homo sapiens, UniProt O95393); assay: Biacore-based binding assay (surface plasmon resonance), BMP10
T16 sequence (O95393 317-424): T2 sequence (looked up)
Protocol: as §2, §1

[20] = 37° C., capture by anti-Fc antibody
[21] = SPR 37° C., compared to ActRIIB-G1Fc / ActRIIB-Fc homodimer
[22] = 37° C., capture by anti-Fc antibody, Transient*: indeterminate due to transient nature of interaction

## ActRIIB-G1Fc: extracellular domain of human ActRIIB fused to a human G1Fc domain with a three-glycine linker; SEQ ID NO: 5
[1]
  muscle-building activity in vivo: muscle-building activity in vivo

B1: ActRIIB-Fc:ActRIIB(L79E)-Fc heterodimer (Fc fusion)
chain 1: GRGEAETRECIYYNANWELERTNQSGLERCEGEQDKRLHCYASWRNSSGTIELVKKGCWEDDFNCYDRQECVATEENPQVYFCCCEGNFCNERFTHLPEAGGPEVTYEPPPTAPTGGGTHTCPPCPAPELLGGPSVFLFPPKPKDTLMISRTPEVTCVVVDVSHEDPEVKFNWYVDGVEVHNAKTKPREEQYNSTYRVVSVLTVLHQDWLNGKEYKCKVSNKALPAPIEKTISKAKGQPREPQVYTLPPSREEMTKNQVSLTCLVKGFYPSDIAVEWESNGQPENNYDTTPPVLDSDGSFFLYSDLTVDKSRWQQGNVFSCSVMHEALHNHYTQKSLSLSPG
chain 2: GRGEAETRECIYYNANWELERTNQSGLERCEGEQDKRLHCYASWRNSSGTIELVKKGCWLDDFNCYDRQECVATEENPQVYFCCCEGNFCNERFTHLPEAGGPEVTYEPPPTAPTGGGTHTCPPCPAPELLGGPSVFLFPPKPKDTLMISRTPEVTCVVVDVSHEDPEVKFNWYVDGVEVHNAKTKPREEQYNSTYRVVSVLTVLHQDWLNGKEYKCKVSNKALPAPIEKTISKAKGQPREPQVYTLPPSRKEMTKNQVSLTCLVKGFYPSDIAVEWESNGQPENNYKTTPPVLKSDGSFFLYSKLTVDKSRWQQGNVFSCSVMHEALHNHYTQKSLSLSPGK
notes: The ActRIIB extracellular domains and linkers are the same in both pairs; also called ActRIIB-Fc:ActRIIB(L79E)-Fc heteromer
[2]
  fold faster off-rate compared to ActRIIB-Fc homodimer: ~10 fold
[3]
  fold faster off-rate compared to ActRIIB-Fc homodimer: ~10 fold
[4]
  Kd: 0.17 nM
  koff: 0.0015 s⁻¹
  kon: 8.8e+06 M⁻¹ s⁻¹
[5]
  Kd: 0.025 nM
  koff: 0.00021 s⁻¹
  kon: 8.3e+06 M⁻¹ s⁻¹
[6]
  Kd: 10 nM
  koff: 0.0059 s⁻¹
  kon: 580000 M⁻¹ s⁻¹
[7]
  Kd: 0.15 nM
  koff: 0.0005 s⁻¹
  kon: 3.4e+06 M⁻¹ s⁻¹
[8]
  Kd: 0.009 nM
  koff: 0.00036 s⁻¹
  kon: 4e+07 M⁻¹ s⁻¹
[9]
  Kd: 0.056 nM
  koff: 0.018 s⁻¹
  kon: 3.3e+08 M⁻¹ s⁻¹
[10]
  Kd: > 2.8 nM
[11]
  Kd: 0.042 nM
  koff: 0.002 s⁻¹
  kon: 4.8e+07 M⁻¹ s⁻¹

B2: ActRIIB-Fc:ActRIIB(L79E)-Fc heterodimer: heteromeric complex of unmodified human ActRIIB-Fc and ActRIIB(L79E)-Fc, each fused to a G1Fc domain with linker (protein)
chain 1: B1 chain 1
chain 2: B1 chain 2
[12]; [20]
  ka Activin A: 8.8e+06 M⁻¹ s⁻¹
  kd Activin A: 0.0015 s⁻¹
[12]; SPR 37° C.
  off-rate for activin A compared to ActRIIB-Fc homodimer: approximately ten-fold faster off-rates
[13]; [20]
  ka Activin B: 8.3e+06 M⁻¹ s⁻¹
  kd Activin B: 0.00021 s⁻¹
[13]; [21]
  affinity for activin B compared to unmodified ActRIIB-Fc (in words): largely retained high-affinity binding
[14]
  ka GDF3: 580000 M⁻¹ s⁻¹
  kd GDF3: 0.0059 s⁻¹
[15]; [20]
  ka GDF8: 3.4e+06 M⁻¹ s⁻¹
  kd GDF8: 0.0005 s⁻¹
[15]; [21]
  GDF8 binding compared to unmodified ActRIIB-Fc (in words): largely retained high-affinity binding
[16]; [20]
  ka GDF11: 4e+07 M⁻¹ s⁻¹
  kd GDF11: 0.00036 s⁻¹
[16]; [21]
  GDF11 binding compared to unmodified ActRIIB-Fc (in words): largely retained high-affinity binding
[17]; [20]
  ka BMP6: 3.3e+08 M⁻¹ s⁻¹
  kd BMP6: 0.018 s⁻¹
[17]; SPR 37° C.
  BMP6 binding compared to ActRIIB-Fc homodimer (in words): largely retained high-affinity binding
[18]; [22]
  ka BMP9: Transient*
  kd BMP9: Transient*
[18]; [21]
  binding to BMP9 compared to unmodified ActRIIB-Fc (in words): even greater reduction in the strength of binding to BMP9
[19]; [20]
  ka BMP10: 4.8e+07 M⁻¹ s⁻¹
  kd BMP10: 0.002 s⁻¹
[19]; SPR 37° C.
  off-rate for BMP10 compared to ActRIIB-Fc homodimer: approximately ten-fold faster off-rates
